{"source": "patent US20220211860A1", "about": "“PEPTIDE DERIVATIVES AND CONJUGATES THEREOF FOR TREATING CANCER” (priority 2019, published 2022)", "key": {"α-tubulin polymerisation": {"tested_on": "α-tubulin polymerisation", "test": "α-tubulin immunostaining in TNBC and normal breast cells", "type": "cell-based", "conditions": "normal breast cells, 1 µM, 18 h", "method": "FIGS. 8A and 8B: The effect of MMAE and LD5-me-vc-PABC-MMAE (LM) on α-tubulin polymerization. (A) MDA-MB-231 (TNBC cell model) and normal breast cells (HMEC and MCF-10A) were treated with free MMAE and LM at 1 μM and PBS (control) followed by immunostaining of α-tubulin with primary and secondary antibodies. The α-tubulin signals were detected by LEICA SPE2 confocal LSM. (B) The α-tubulin signal intensity was measured by Fiji J software in normal breast cells (HMEC and MCF-10A) and MDA-MB-231. ****p<0.0001 is the significance in the signal intensity in each cell line treated with PBS and LM in comparison to MMAE-treated cells. ####p<0.0001 is the significance of the α-tubulin signal intensity in MDA-MB-231 cells treated with LM in comparison to MCF-10A and HMEC cells. […] Statistical analysis was made in Prism by two-way ANOVA followed by Tukey's multiple comparisons test. Error bars are standard deviations (STDV), n=8 (3 independent repeats).\nThe intracellular effects of MMAE on α-tubulin polymerisation were examined using α-tubulin immunostaining in TNBC cells (MDA-MB-231) and normal breast cells (MCF-10A and HMEC) treated with MMAE and MMAE conjugated with LD5 (LD5-mc-vc-PABC-MMAE). TNBC cells and normal breast cells were fixed after incubating with […] of MMAE and LD5-mc-vc-PABC-MMAE for 18 h along with PBS as a control. […]"}, "MDA-MB-231": {"tested_on": "MDA-MB-231", "test": "Uptake after silencing LHRH-R gene in MDA-MB-231", "type": "cell-based, human", "conditions": "MDA-MB-231, LHRH-R siRNA, 1 μM, 18 h", "method": "FIGS. 10A and 10B: Uptake of LD5-me-vc-PABC-MMAE (LM) after silencing LHRH-R in MDA-MB-231 cells. The cells were treated with LHRH-R siRNA and co-transfected with fluorescent labelled siRNA negative control as transfection efficiency signal (FAM-transfection control). LHRH-R negative control refers to MDA-MB-231 cells that were not transfected with LHRH-R siRNA and FAM-transfection control. (A) Silenced LHRH-R cells and negative control cells were treated with LM (1 μM) for 18 h and LM signal was detected by immunocytochemistry with specific LHRH binding of primary antibody labelled by Rhodamine-conjugated secondary antibody. Immunocytochemical images were captured by LEICA SPE2 confocal LSM. (B) The LM signal intensity in both silenced LHRH-R and negative control was measured by Fiji J software. […] The data was analysed by unpaired t-test with Welch's correction (**** p<0.0001). Error bars are standard deviations (STDV), n=8 (3 independent repeats).\nTo further examine the role of LHRH-R in the uptake of LD5-me-vc-PABC-MMAE, LHRH-R expression was blocked by silencing their gene in MDA-MB-231 (TNBC cell model). This study was performed by co-transfection of siRNAs (RNAi-Mate transfection reagent and siRNA, GNRHR-homo-2242, GNRHR-homo-2701, and scrambled RNA were from GenePharma) and a fluorescently labelled negative control siRNA (FAM transfection efficiency control was from GenePharma)."}, "[1]": {"test": "In vitro metabolic stability (release of free MMAE, LC/MS), human plasma", "type": "in vitro ADME", "conditions": "1 μM, 37° C., 10 days", "method": "(§1) FIG. 11: Stability of LHRHD-(mc-vc-PABC)-MMAE (i.e. LD5-mc-vc-PABC-MMAE) in human plasma, mouse plasma, and cell culture media (c-media). The stability was measured based on the presence of free MMAE detected in the samples by LC-MS at each time point relative to time 0. Error Bars are standard deviations (STDV), p>0.05 and n=9 (mean is calculated from samples in triplicate in 3 independent experiments).\n(§2) The metabolic stability of LD5-(mc-vc-PABC)-MMAE was investigated in cell culture media (c-media), human and mouse plasma. An LC/MS method was developed to detect both free MMAE and the presence of any degraded species from the whole construct, LD5-(mc-vc-PABC)-MMAE. To evaluate the stability of the valine-citrulline linkage, LD5-(mc-vc-PABC)-MMAE at 1 μM was incubated in c-media, human and mouse plasma at 37° C. for a period of 10 days. Aliquots were taken at pre-determined time intervals (t=0, 1, 2, 4, 7, 10 days) and analysed by LC/MS for the release of free MMAE."}, "[2]": {"test": "In vitro stability (release of free MMAE, LC/MS), cell culture media", "type": "in vitro ADME", "conditions": "c-media, 1 μM, 37° C., 10 days", "method": "as §1, §2"}, "[3]": {"test": "Phase II: repeat-dose MTD in mice", "type": "in vivo", "conditions": "mouse, in vivo; female NOD/SCID mice, IV; MTD not reached at 10 mg/kg", "method": "(§3) LD-5-(mc-vc-PABC)-MMAE (10 mg/kg; determined by the results by Phase I) was administered IV once weekly on days 1 and 8 to groups of 3 female NOD/SCID mice (23±3 g). […] Body weights were recorded pre-dose and on days 1, 4, 8, 12 and 15. The animals were observed and mortality noted daily after first compound administration for 15 days. Gross necropsy was performed on all animals without tissue collection.\n(§4) Therefore, the MTD was not reached at this dose. With the corresponding ADCs bearing MMAE the MTD has been considerably lower."}, "female NOD/SCID mice [4]": {"tested_on": "female NOD/SCID mice", "test": "Phase II: repeat-dose MTD in mice", "type": "in vivo", "conditions": "for Body Weight: listed as LHRHD-(mc-vc-PABC)-MMAE, 10 mg/kg", "method": "as §3, §4"}, "female NOD/SCID mice [5]": {"tested_on": "female NOD/SCID mice", "test": "Phase I: single-dose MTD in mice", "type": "in vivo", "conditions": "IV 10 mg/kg, 72 hr, individual animals, listed as LHRHD-(mc-vc-PABC)-MMAE"}}, "note": "“And” between values parts separate entries of the source, which are not always exact repeats. Equal values may be shown once.", "data": [{"molecule": "CCNC(=O)[C@@H]1CCCN1C(=O)[C@H](CCCNC(=N)N)NC(=O)[C@H](CC(C)C)NC(=O)[C@@H](CCCCNC1CC(=O)N(CCCCCC(=O)N[C@H](C(=O)N[C@@H](CCCNC(N)=O)C(=O)Nc2ccc(COC(=O)N(C)[C@H](C(=O)N[C@H](C(=O)N(C)[C@@H]([C@@H](C)CC)[C@@H](CC(=O)N3CCC[C@H]3[C@H](OC)[C@@H](C)C(=O)N[C@H](C)[C@@H](O)c3ccccc3)OC)C(C)C)C(C)C)cc2)C(C)C)C1=O)NC(=O)[C@H](Cc1ccc(O)cc1)NC(=O)[C@H](CO)NC(=O)[C@H](Cc1c[nH]c2ccccc12)NC(=O)[C@H](Cc1c[nH]cn1)NC(=O)[C@@H]1CCC(=O)N1", "note": "(some centres unmarked) [LD5-mc-vc-PABC-MMAE]", "values": [{"measurement": "α-tubulin signal compared to MMAE treatment", "setting": "α-tubulin polymerisation", "value": "significantly higher"}, {"measurement": "uptake after silencing the LHRH-R gene", "setting": "MDA-MB-231", "value": "significantly reduced"}, {"measurement": "total drug released as MMAE", "setting": "[1]", "value": "less than 3%"}, {"measurement": "total drug released as MMAE", "setting": "[1]; listed as LHRHD-(mc-vc-PABC)-MMAE", "value": "around 3%"}, {"measurement": "total drug released as MMAE", "setting": "[2]", "value": "less than 3%"}, {"measurement": "MTD", "setting": "[3]", "value": "> 10", "unit": "mg/kg"}, {"measurement": "adverse effects (acute toxic symptoms, autonomic effects)", "setting": "female NOD/SCID mice [4]; 10 mg/kg IV, after first and second administrations on Day 1 and 8", "value": "No marked adverse effects"}, {"measurement": "Mortality (death/test)", "setting": "female NOD/SCID mice [4]; IV 10 mg/kg on days 1 and 8, Day 1", "value": "0/3"}, {"measurement": "Body Weight", "setting": "female NOD/SCID mice [4]; IV 10 mg/kg on days 1 and 8, Day 1, individual animals", "value": "22 g (2×) and 21 g"}, {"measurement": "Mortality (death/test)", "setting": "female NOD/SCID mice [4]; IV 10 mg/kg on days 1 and 8, Day 2", "value": "0/3"}, {"measurement": "Mortality (death/test)", "setting": "female NOD/SCID mice [4]; IV 10 mg/kg on days 1 and 8, Day 3", "value": "0/3"}, {"measurement": "Mortality (death/test)", "setting": "female NOD/SCID mice [4]; IV 10 mg/kg on days 1 and 8, Day 4", "value": "0/3"}, {"measurement": "Body Weight", "setting": "female NOD/SCID mice [4]; IV 10 mg/kg on days 1 and 8, Day 4, individual animals", "value": "23 g (2×) and 22 g"}, {"measurement": "Mortality (death/test)", "setting": "female NOD/SCID mice [4]; IV 10 mg/kg on days 1 and 8, Day 5", "value": "0/3"}, {"measurement": "Mortality (death/test)", "setting": "female NOD/SCID mice [4]; IV 10 mg/kg on days 1 and 8, Day 6", "value": "0/3"}, {"measurement": "Mortality (death/test)", "setting": "female NOD/SCID mice [4]; IV 10 mg/kg on days 1 and 8, Day 7", "value": "0/3"}, {"measurement": "Mortality (death/test)", "setting": "female NOD/SCID mice [4]; IV 10 mg/kg on days 1 and 8, Day 8", "value": "0/3"}, {"measurement": "Body Weight", "setting": "female NOD/SCID mice [4]; IV 10 mg/kg on days 1 and 8, Day 8, individual animals", "value": "23 g (2×) and 22 g"}, {"measurement": "Mortality (death/test)", "setting": "female NOD/SCID mice [4]; IV 10 mg/kg on days 1 and 8, Day 9", "value": "0/3"}, {"measurement": "Mortality (death/test)", "setting": "female NOD/SCID mice [4]; IV 10 mg/kg on days 1 and 8, Day 10", "value": "0/3"}, {"measurement": "Mortality (death/test)", "setting": "female NOD/SCID mice [4]; IV 10 mg/kg on days 1 and 8, Day 11", "value": "0/3"}, {"measurement": "Mortality (death/test)", "setting": "female NOD/SCID mice [4]; IV 10 mg/kg on days 1 and 8, Day 12", "value": "0/3"}, {"measurement": "Body Weight", "setting": "female NOD/SCID mice [4]; IV 10 mg/kg on days 1 and 8, Day 12, individual animals", "value": "24 g (2×) and 23 g"}, {"measurement": "Mortality (death/test)", "setting": "female NOD/SCID mice [4]; IV 10 mg/kg on days 1 and 8, Day 13", "value": "0/3"}, {"measurement": "Mortality (death/test)", "setting": "female NOD/SCID mice [4]; IV 10 mg/kg on days 1 and 8, Day 14", "value": "0/3"}, {"measurement": "Mortality (death/test)", "setting": "female NOD/SCID mice [4]; IV 10 mg/kg on days 1 and 8, Day 15", "value": "0/3"}, {"measurement": "Body Weight", "setting": "female NOD/SCID mice [4]; IV 10 mg/kg on days 1 and 8, Day 15, individual animals", "value": "25 g (2×) and 24 g"}, {"measurement": "gross necropsy", "setting": "female NOD/SCID mice [4]; both phases", "value": "No abnormality was found"}, {"measurement": "Body Weight", "setting": "female NOD/SCID mice [5]", "value": "21 g and 20 g (2×)"}]}]}
